Results reported in patent publication US20240067747A1 (SHANGHAI HUAOTA BIOPHARMACEUTICAL, published 2024).

Experiments:
[1] = biological target: T1, recombinant human CD73 protein (ACRO Biosystems, item No. CD3-H52H7) (human, UniProt P21589 27-547); test: ELISA, plate coated with CD73 protein, anti-human-IgG-Fc-HRP
T1 construct: also called recombinant CD73 protein
T1 sequence (looked up): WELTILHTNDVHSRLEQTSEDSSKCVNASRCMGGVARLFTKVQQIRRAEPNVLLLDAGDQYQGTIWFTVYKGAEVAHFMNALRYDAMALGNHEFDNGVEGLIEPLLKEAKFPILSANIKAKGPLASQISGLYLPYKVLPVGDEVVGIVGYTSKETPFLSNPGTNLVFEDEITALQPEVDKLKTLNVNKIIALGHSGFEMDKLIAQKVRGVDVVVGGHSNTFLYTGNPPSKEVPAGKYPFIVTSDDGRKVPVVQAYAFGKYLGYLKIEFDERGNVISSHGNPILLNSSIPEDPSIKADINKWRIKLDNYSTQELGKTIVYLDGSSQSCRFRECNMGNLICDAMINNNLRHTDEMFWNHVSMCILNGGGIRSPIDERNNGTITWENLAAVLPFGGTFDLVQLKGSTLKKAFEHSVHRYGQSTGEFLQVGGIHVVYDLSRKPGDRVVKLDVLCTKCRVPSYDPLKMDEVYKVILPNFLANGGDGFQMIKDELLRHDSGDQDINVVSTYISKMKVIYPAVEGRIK
Experimental: The ELISA well plate was coated with 30 ul of 2 ug/ml CD73 protein (ACRO, #CD3-H52H7-100μg) solution and incubated overnight at 4° C. Then, the well plate was washed 3 times with PBST, blocked with 5% MILK/PBS at room temperature for 1 h, and then washed 3 times with PBST. […] The diluted antigen-binding protein solutions were then added to the ELISA well plate, 30 ul per well, and incubated at room temperature for 30 min. After the incubation, the well plate was washed 3 times. Anti-human-IgG-Fc-HRP was added and incubated at room temperature for 50 min. After the incubation, the well plate was washed 3 times. The TMB solution was added. The reaction was then terminated with 2M HCl and the OD450 reading was checked.

[2] = biological target: T2, human CD73 on the cell surface of CHOK1-huCD73-3F4 cells (Huabo Biopharm) (human, UniProt P21589 27-549); test: cell-based or functional assay
T2 sequence (looked up): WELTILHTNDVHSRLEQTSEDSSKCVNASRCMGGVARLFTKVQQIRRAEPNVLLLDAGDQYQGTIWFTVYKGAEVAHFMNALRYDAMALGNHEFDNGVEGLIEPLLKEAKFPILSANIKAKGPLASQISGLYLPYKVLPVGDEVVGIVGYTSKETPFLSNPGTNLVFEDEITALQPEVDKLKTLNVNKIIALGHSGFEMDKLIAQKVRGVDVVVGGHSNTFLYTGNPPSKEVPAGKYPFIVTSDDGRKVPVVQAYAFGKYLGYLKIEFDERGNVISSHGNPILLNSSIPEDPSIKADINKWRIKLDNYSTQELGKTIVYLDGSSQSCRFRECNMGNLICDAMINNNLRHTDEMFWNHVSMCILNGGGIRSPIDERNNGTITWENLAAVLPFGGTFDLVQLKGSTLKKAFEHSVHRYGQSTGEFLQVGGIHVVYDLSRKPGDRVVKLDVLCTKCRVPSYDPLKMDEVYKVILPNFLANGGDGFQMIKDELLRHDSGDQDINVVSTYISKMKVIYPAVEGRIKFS

[3] = biological target: T1, recombinant human CD73 protein (ACRO …); test: SPR, Biacore T200, antibody captured on protein A chip, human CD73 as analyte, 1:1 model
Experimental: In the tests, the assay buffer HBS-EP+ (pH 7.4) and the protein A chip (manufacturer: GE, item No.: 29-1275-56) were used.
The temperatures of a sample chamber and a flow path were set at 25° C., and the protein A chip respectively captured chimeric antibodies or humanized antibodies as ligands and immobilized at about 100 RU. […] After association for 120 s at a flow rate of 30 μL/min, dissociation was carried out for 600 s. Regeneration was then carried out for 60 s with 10 mM Glycine (pH 1.5) at a flow rate of 50 μL/min to implement multi-cycle kinetic detection. A 1:1 binding model was selected for fitting analysis in a Fit local mode to acquire the association rate constant (ka), dissociation rate constant (kd) and dissociation equilibrium rate constant (KD).

[4] = biological target: T3, Trypsin inhibitor type 1-S from Glycine max (Sigma, T-2327) (Glycine max, UniProt P01070 25-205); test: SPR, Biacore 8K, trypsin inhibitor immobilized on CM5 chip
T3 construct: Non-target molecule, amine-coupled to a CM5 chip
T3 sequence (looked up): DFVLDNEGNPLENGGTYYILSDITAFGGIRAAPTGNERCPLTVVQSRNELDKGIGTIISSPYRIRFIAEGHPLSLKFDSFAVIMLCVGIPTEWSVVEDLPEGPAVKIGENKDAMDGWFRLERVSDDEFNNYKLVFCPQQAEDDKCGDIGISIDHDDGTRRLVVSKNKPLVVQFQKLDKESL
Experimental: (§1) The non-specific adsorption effect of antigen-binding proteins and non-target molecules were determined by using the SPR method.
(§2) The series sensor chip CM5 (GE, #BR-1005-30) was equilibrated at room temperature for 20-30 min and then loaded into the Biacore 8K (GE) instrument. Lysozyme solution (Sigma, #L3790) from egg and trypsin inhibitor type 1-S (Sigma, #T-2327) from Glycine max were immobilized onto the CM5 chip using an amino coupling kit (GE, #BR-1000-50). The injection buffer was HBS-EP (1×) (GE, #BR-1006-69) and four equilibration cycles were set up. The polyclonal rabbit anti-lysozyme (ABcam, Ab391), anti-trypsin inhibitor antibodies (LifeSpan Biosciences, #LS-C76609), chimeric antibodies and humanized antibodies were diluted with equilibration buffer to 1000 nM, and the flow rate was set at 5 μL/min and injection channels 1, 2 and 3, Flow Cell 1 and 2 were selected. The association time was 10 min and the dissociation time was 10 min.

[5] = biological target: T4, Lysozyme from chicken egg (Sigma, L3790) (chicken, UniProt P00698 19-147); test: SPR, Biacore 8K, lysozyme immobilized on CM5 chip
T4 construct: Non-target molecule, amine-coupled to a CM5 chip
Experimental: as §1, §2

[6] = biological target: T5, CD73 on the cell surface of Calu6 cells (UniProt P21589 27-549, limits assumed); test: cell-based or functional assay
T5 sequence (looked up): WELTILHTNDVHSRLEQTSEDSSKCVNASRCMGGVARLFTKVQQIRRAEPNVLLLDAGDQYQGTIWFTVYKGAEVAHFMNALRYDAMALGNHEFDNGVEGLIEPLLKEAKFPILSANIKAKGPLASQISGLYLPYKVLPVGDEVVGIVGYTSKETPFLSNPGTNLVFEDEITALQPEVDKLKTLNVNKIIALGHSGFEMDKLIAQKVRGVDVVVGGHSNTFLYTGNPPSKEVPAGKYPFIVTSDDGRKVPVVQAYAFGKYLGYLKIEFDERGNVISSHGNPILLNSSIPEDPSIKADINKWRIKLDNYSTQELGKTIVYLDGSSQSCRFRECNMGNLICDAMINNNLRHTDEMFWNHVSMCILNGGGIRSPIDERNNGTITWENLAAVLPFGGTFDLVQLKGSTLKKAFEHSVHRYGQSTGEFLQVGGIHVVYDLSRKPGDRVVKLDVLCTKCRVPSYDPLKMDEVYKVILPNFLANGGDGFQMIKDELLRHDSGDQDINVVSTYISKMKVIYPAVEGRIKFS

T4 sequence (P00698 19-147 limits assumed): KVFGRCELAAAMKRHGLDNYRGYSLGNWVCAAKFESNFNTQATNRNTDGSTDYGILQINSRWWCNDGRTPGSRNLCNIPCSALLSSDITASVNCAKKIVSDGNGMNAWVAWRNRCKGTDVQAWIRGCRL

B1: 900725 (humanized anti-CD73 antigen-binding protein) (antibody, V domains shown)
VH: QVQLVQSGAEVKKPGASVKLSCKASGYTFTSYWIHWVRQAPGQGLEWIGMIHPNSGSTYYNEKFKGRATLTVDKSTSTAYMELSSLRSEDTAVYYCARYYGSDYEWYFDVWGQGTTVTVSS
VL: DIQMTQSPSSMSASVGDRVTITCKASQNVRTAVVWYQQKPGKAPKALIYLASNRHTGVPDRFSGSGSGTDFTLTISSLQPEDFATYFCLQHWNYPYTFGQGTKLEIK
B1 was tested, and the EC50 [1] was 0.327 µg/mL, the “EC50 of inhibition of the enzyme activity of CD73 on cell membrane (AMP/ATP, CellTiter-Glo)” value (from here on “EC50 of inhibition … (AMP/ATP, CellTiter-Glo)”) [2] was 0.0697 µg/mL and the Kd [3] was 201 pM. The koff [3] was 0.000126 s⁻¹, the kon [3] was 626000 M⁻¹ s⁻¹ and the binding result [4] was “no binding (tested: 1000 nM antibody; 20 RU)”. The binding result [5] was “no binding (tested: 1000 nM antibody; 20 RU)” and the “Endocytosis rate (%)” value [6] was 37.5%.

B2: 900726 (humanized anti-CD73 antigen-binding protein) (antibody, V domains shown)
VH: QVQLVQSGAEVKKPGASVKLSCKASGYTFTSYWIHWVRQAPGQGLEWIGMIHPNSGSTYYNEKFKGRATLTVDKSTSTAYMELSSLRSEDTAVYYCARYYGSDYEWYFDVWGQGTTVTVSS
VL: DIQMTQSPSSLSASVGDRVTITCKASQNVRTAVVWYQQKPGKAPKALIYLASNRHTGVPDRFSGSGSGTDFTLTISSLQPEDFATYYCLQHWNYPYTFGQGTKLEIK
B2 was tested, and the EC50 [1] was 0.361 µg/mL, the Kd [3] was 2490 pM and the koff [3] was 0.00124 s⁻¹. The kon [3] was 496000 M⁻¹ s⁻¹, the binding result [4] was “no binding (tested: 1000 nM antibody; 20 RU)” and the binding result [5] was “no binding (tested: 1000 nM antibody; 20 RU)”.

B3: 900727 (humanized anti-CD73 antigen-binding protein) (antibody, V domains shown)
VH: QVQLVQSGAEVKKPGASVKVSCKASGYTFTSYWIHWVRQAPGQGLEWIGMIHPNSGSTYYAQKFQGRVTITVDKSTSTAYMELSSLRSEDTAVYYCARYYGSDYEWYFDVWGQGTTVTVSS
VL: DIQMTQSPSSMSASVGDRVTITCKASQNVRTAVVWYQQKPGKAPKALIYLASNRHTGVPDRFSGSGSGTDFTLTISSLQPEDFATYFCLQHWNYPYTFGQGTKLEIK
B3 was tested, and the EC50 [1] was 0.364 µg/mL, the Kd [3] was 789 pM and the koff [3] was 0.000494 s⁻¹. For the same binder, the kon [3] was 626000 M⁻¹ s⁻¹, the binding result [4] was “no binding (tested: 1000 nM antibody; 20 RU)” and the binding result [5] was “no binding (tested: 1000 nM antibody; 20 RU)”.

B4: 900728 (humanized anti-CD73 antigen-binding protein) (antibody, V domains shown)
VH: QVQLVQSGAEVKKPGASVKVSCKASGYTFTSYWIHWVRQAPGQGLEWIGMIHPNSGSTYYNEKFQGRVTMTVDKSTSTAYMELSSLRSEDTAVYYCARYYGSDYEWYFDVWGQGTTVTVSS
VL: DIQMTQSPSSLSASVGDRVTITCKASQNVRTAVVWYQQKPGKAPKALIYLASNRHTGVPDRFSGSGSGTDFTLTISSLQPEDFATYYCLQHWNYPYTFGQGTKLEIK
In the case of B4, the EC50 [1] is reported as 0.29 µg/mL, the “EC50 of inhibition … (AMP/ATP, CellTiter-Glo)” value [2] is reported as 0.0467 µg/mL and the Kd [3] is reported as 377 pM. The koff [3] was 0.000317 s⁻¹, the kon [3] was 841000 M⁻¹ s⁻¹ and the binding result [4] was “no binding (tested: 1000 nM antibody; 20 RU)”. The binding result [5] was “no binding (tested: 1000 nM antibody; 20 RU)” and the “Endocytosis rate (%)” value [6] was 33.9%.

B5: 900567 (human-mouse chimeric anti-CD73 antigen-binding protein expressed from 124A9 variable regions) (antibody, V domains shown)
VH: QVQLQQPGAELVKPGASVKLSCKASGYTFTSYWIHWVKQRPGQGLDWIGMIHPNSGSTYYNEKFKSKATLTVDKSSSTAYMQLSSLTSEDSAVYYCARYYGSDYEWYFDVWGTGTTVTVSS
VL: DIVMTQSQKFMSTSVGDRVSITCKASQNVRTAVVWYQQNPGQSPKALIYLASNRHTGVPDRFTGSGSGTDFTLTISNVHSEDLADYFCLQHWNYPYTFGGGTKLEIK
With B5 the EC50 [1] was 0.282 µg/mL, the “EC50 of inhibition … (AMP/ATP, CellTiter-Glo)” value [2] was 0.025 µg/mL and the Kd [3] was 652 pM. The koff [3] was 0.00049 s⁻¹, the kon [3] was 752000 M⁻¹ s⁻¹ and the binding result [4] was “no binding (tested: 1000 nM antibody; 20 RU)”. The binding result [5] was “no binding (tested: 1000 nM antibody; 20 RU)” and the “Endocytosis rate (%)” value [6] was 26.9%.
